Measurements from patent publication US20190359693A1.

Molecular target: hemagglutinin (HA) of influenza virus H3N? A/Env/MPJ193/09 (influenza A virus)
Assay: cell-based or functional assay

B1: MD2407 (bispecific antibody)
chain: EVQLVESGGGLVQPGGSLRLSCAVSISIFDIYAMDWYRQAPGKQRDLVATSFRDGSTNYADSVKGRFTISRDNAKNTLYLQMNSLKPEDTAVYLCHVSLYRDPLGVAGGMGVYWGKGALVTVSSGGGGSGGGGSEVQLVESGGGLVQAGGSLKLSCAASGRTYAMGWFRQAPGKEREFVAHINALGTRTYYSDSVKGRFTISRDNAKNTEYLEMNNLKPEDTAVYYCTAQGQWRAAPVAVAAEYEFWGQGTQVTVSSGGGGSGGGGSEVQLVESGGGLVQPGGSLRLSCAATGFTLENKAIGWFRQTPGSEREGVLCISKSGSWTYYTDSMRGRFTISRDNAENTVYLQMDSLKPEDTAVYYCATTTAGGGLCWDGTTFSRLASSWGQGTQVTVSSGGGGSGGGGSEVQLVESGGGLVQPGGSLKLSCAASGFTFSTSWMYWLRQAPGKGLEWVSVINTDGGTYYADSVKDRFTISRDNAKDTLYLQMSSLKSEDTAVYYCAKDWGGPEPTRGQGTQVTVSS
- average neutralization titer: 24.5 nM
